From paper doi:10.1101/071720 come the findings set out here.

By stoichiometry N is commonly meant the number of molecules, sites or subunits per partner or assembly.

The experiment has as its target recombinant pscC protein of Pseudomonas aeruginosa (PA01), His-GST fusion (Pseudomonas aeruginosa PA01). The experiment can be described thus: SEC. (Size exclusion chromatography separates by hydrodynamic size, large species first.)

For “recombinant pscC protein of Pseudomonas aeruginosa (PA01), His-GST fusion (domain or fragment)”, the stoichiometry N was 2.
